The supplement of paper PMC11246515
± gives the standard deviation of the averaged measurements.

Test: total protein half-life in vivo (active degradation + dilution); higher = more stable protein
[1] = E. coli NCM3722 delta-clpP delta-lon delta-hslV, growth: N-lim chemostat, doubling time 6 h
[2] = E. coli NCM3722 delta-clpP, growth: N-lim chemostat, doubling time 6 h
[3] = E. coli NCM3722 delta-hslV, growth: N-lim chemostat, doubling time 6 h
[4] = E. coli NCM3722 delta-lon, growth: N-lim chemostat, doubling time 6 h
[5] = E. coli NCM3722 delta-smpB, growth: N-lim chemostat, doubling time 6 h
[6] = wild type E. coli NCM3722, growth: C-lim chemostat, doubling time 3 h
[7] = wild type E. coli NCM3722, growth: C-lim chemostat, doubling time 6 h
[8] = wild type E. coli NCM3722, growth: C-lim chemostat, doubling time 12 h
[9] = wild type E. coli NCM3722, growth: N-lim chemostat, doubling time 6 h
[10] = wild type E. coli NCM3722, growth: N-lim chemostat, doubling time 12 h
[11] = wild type E. coli NCM3722, growth: P-lim chemostat, doubling time 6 h
[12] = wild type E. coli NCM3722, growth: P-lim chemostat, doubling time 12 h

| Sequence | total protein half-life in vivo [1] | total protein half-life in vivo [2] | total protein half-life in vivo [3] | total protein half-life in vivo [4] | total protein half-life in vivo [5] | total protein half-life in vivo [6] | total protein half-life in vivo [7] | total protein half-life in vivo [8] | total protein half-life in vivo [9] | total protein half-life in vivo [10] | total protein half-life in vivo [11] | total protein half-life in vivo [12] |
| --- | --- | --- | --- | --- | --- | --- | --- | --- | --- | --- | --- | --- |
| MIEVKHLKTLQALRNCGSLAAAAATLHQTQSALSHQFSDLEQRLGFRLFVRKSQPLRFTPQGEILLQLANQVLPQISQALQACNEPQQTRLRIAIECHSCIQWLTPALENFHKNWPQVEMDFKSGVTFDPQPALQQGELDLVMTSDILPRSGLHYSPMFDYEVRLVLAPDHPLAAKTRITPEDLASETLLIYPVQRSRLDVWRHFLQPAGVSPSLKSVDNTLLLIQMVAARMGIAALPHWVVESFERQGLVVTKTLGEGLWSRLYAAVRDGEQRQPVTEAFIRSARNHACDHLPFVKSAERPTYDAPTVRPGSPARL [P0A9F9] | 5.1817 ± 0.0019 h | 1.5 ± 0.033 h | 0.933 ± 0.25 h | 2.88 ± 0.57 h | 1.1 ± 0.09 h | 0.811 ± 0.024 h | 1.17 ± 0.17 h | 1.08 ± 0.34 h | 1.14 ± 0.14 h | 1.81 ± 0.27 h | 0.609 h | 1.87 h |
| MAAQGFLLIATFLLVLMVLARPLGSGLARLINDIPLPGTTGVERVLFRALGVSDREMNWKQYLCAILGLNMLGLAVLFFMLLGQHYLPLNPQQLPGLSWDLALNTAVSFVTNTNWQSYSGETTLSYFSQMAGLTVQNFLSAASGIAVIFALIRAFTRQSMSTLGNAWVDLLRITLWVLVPVALLIALFFIQQGALQNFLPYQAVNTVEGAQQLLPMGPVASQEAIKMLGTNGGGFFNANSSHPFENPTALTNFVQMLAIFLIPTALCFAFGEVMGDRRQGRMLLWAMSVIFVICVGVVMWAEVQGNPHLLALGTDSSINMEGKESRFGVLVSSLFAVVTTAASCGAVIAMHDSFTALGGMVPMWLMQIGEVVFGGVGSGLYGMMLFVLLAVFIAGLMIGRTPEYLGKKIDVREMKLTALAILVTPTLVLMGAALAMMTDAGRSAMLNPGPHGFSEVLYAVSSAANNNGSAFAGLSANSPFWNCLLAFCMFVGRFGVIIPVMAIAGSLVSKKSQAASSGTLPTHGPLFVGLLIGTVLLVGALTFIPALALGPVAEYLS | – | – | – | – | – | – | – | – | – | – | 5.85 h | – |
| MKPSVILYKALPDDLLQRLQEHFTVHQVANLSPQTVEQNAAIFAEAEGLLGSNENVNAALLEKMPKLRATSTISVGYDNFDVDALTARKILLMHTPTVLTETVADTLMALVLSTARRVVEVAERVKAGEWTASIGPDWYGTDVHHKTLGIVGMGRIGMALAQRAHFGFNMPILYNARRHHKEAEERFNARYCDLDTLLQESDFVCLILPLTDETHHLFGAEQFAKMKSSAIFINAGRGPVVDENALIAALQKGEIHAAGLDVFEQEPLSVDSPLLSMANVVAVPHIGSATHETRYGMAACAVDNLIDALQGKVEKNCVNPHVAD | 4.9 ± 1.3 h | 4.12 ± 0.17 h | 3.82 ± 0.29 h | 5.02 ± 0.68 h | 3.89 ± 0.12 h | 2.95 ± 0.11 h | 5.5 ± 0.48 h | 8.92 ± 0.31 h | 4.03 ± 0.16 h | 6.22 ± 0.18 h | 5.53 ± 0.1 h | 11.1 ± 0.45 h |
| MNTALAQQIANEGGVEAWMIAQQHKSLLRFLTCGSVDDGKSTLIGRLLHDTRQIYEDQLSSLHNDSKRHGTQGEKLDLALLVDGLQAEREQGITIDVAYRYFSTEKRKFIIADTPGHEQYTRNMATGASTCELAILLIDARKGVLDQTRRHSFISTLLGIKHLVVAINKMDLVDYSEETFTRIREDYLTFAGQLPGNLDIRFVPLSALEGDNVASQSESMPWYSGPTLLEVLETVEIQRVVDAQPMRFPVQYVNRPNLDFRGYAGTLASGRVEVGQRVKVLPSGVESNVARIVTFDGDREEAFAGEAITLVLTDEIDISRGDLLLAADEALPAVQSASVDVVWMAEQPLSPGQSYDIKIAGKKTRARVDGIRYQVDINNLTQREVENLPLNGIGLVDLTFDEPLVLDRYQQNPVTGGLIFIDRLSNVTVGAGMVHEPVSQATAAPSEFSAFELELNALVRRHFPHWGARDLLGDK | 4.99 ± 0.27 h | 4.67 ± 0.42 h | 1.18 ± 0.2 h | 1.23 ± 0.018 h | 1.13 ± 0.045 h | 1.58 ± 0.051 h | 1.61 ± 0.17 h | 2.08 ± 0.23 h | 1.29 ± 0.057 h | 1.39 ± 0.11 h | 1.67 ± 0.47 h | 2.32 ± 0.57 h |
| MSKFLDRFRYFKQKGETFADGHGQLLNTNRDWEDGYRQRWQHDKIVRSTHGVNCTGSCSWKIYVKNGLVTWETQQTDYPRTRPDLPNHEPRGCPRGASYSWYLYSANRLKYPMMRKRLMKMWREAKALHSDPVEAWASIIEDADKAKSFKQARGRGGFVRSSWQEVNELIAASNVYTIKNYGPDRVAGFSPIPAMSMVSYASGARYLSLIGGTCLSFYDWYCDLPPASPQTWGEQTDVPESADWYNSSYIIAWGSNVPQTRTPDAHFFTEVRYKGTKTVAVTPDYAEIAKLCDLWLAPKQGTDAAMALAMGHVMLREFHLDNPSQYFTDYVRRYTDMPMLVMLEERDGYYAAGRMLRAADLVDALGQENNPEWKTVAFNTNGEMVAPNGSIGFRWGEKGKWNLEQRDGKTGEETELQLSLLGSQDEIAEVGFPYFGGDGTEHFNKVELENVLLHKLPVKRLQLADGSTALVTTVYDLTLANYGLERGLNDVNCATSYDDVKAYTPAWAEQITGVSRSQIIRIAREFADNADKTHGRSMIIVGAGLNHWYHLDMNYRGLINMLIFCGCVGQSGGGWAHYVGQEKLRPQTGWQPLAFALDWQRPARHMNSTSYFYNHSSQWRYETVTAEELLSPMADKSRYTGHLIDFNVRAERMGWLPSAPQLGTNPLTIAGEAEKAGMNPVDYTVKSLKEGSIRFAAEQPENGKNHPRNLFIWRSNLLGSSGKGHEFMLKYLLGTEHGIQGKDLGQQGGVKPEEVDWQDNGLEGKLDLVVTLDFRLSSTCLYSDIILPTATWYEKDDMNTSDMHPFIHPLSAAVDPAWEAKSDWEIYKAIAKKFSEVCVGHLGKETDIVTLPIQHDSAAELAQPLDVKDWKKGECDLIPGKTAPHIMVVERDYPATYERFTSIGPLMEKIGNGGKGIAWNTQSEMDLLRKLNYTKAEGPAKGQPMLNTAIDAAEMILTLAPETNGQVAVKAWAALSEFTGRDHTHLALNKEDEKIRFRDIQAQPRKIISSPTWSGLEDEHVSYNAGYTNVHELIPWRTLSGRQQLYQDHQWMRDFGESLLVYRPPIDTRSVKEVIGQKSNGNQEKALNFLTPHQKWGIHSTYSDNLLMLTLGRGGPVVWLSEADAKDLGIADNDWIEVFNSNGALTARAVVSQRVPAGMTMMYHAQERIVNLPGSEITQQRGGIHNSVTRITPKPTHMIGGYAHLAYGFNYYGTVGSNRDEFVVVRKMKNIDWLDGEGNDQVQESVK | 6.33 ± 1.8 h | – | 5.88 ± 0.73 h | 6.6 ± 0.84 h | 4.97 ± 0.39 h | 2.41 h | 6.81 h | 13.2 h | 6.23 ± 0.94 h | – | 5.64 ± 0.29 h | 12.1 ± 1.3 h |
| MTIYFINWVADYELKMIQYLKKKYKIKNITTPKKYNWINKKISKIGMDNAWLGRLFIKHYLNDIKKDDIIIINDSVVNKGINKQILKNINCHKVLLLRNTVGEDFILDNANYFDIIYDFEHRFIGNEKIKAIEQFFPIGMDEIRNYSLSDKNNSQPICFFLGRDKGRLQIINELAERLTTLGCKLDFNVVKDKTSSTTSKYLIEKQISYEENIRRTLNANIIVDITKENQSGWTLRILEALFFNKKLITNNINVFGSEIYSESRFFIIGHDDWDKLEYFINSSVKPMDYDSLYKFSPDKMMSTIVSDFIDK | 7.07 ± 1.2 h | – | 5.4 ± 0.26 h | – | 4.651 ± 0.02 h | 2.87 ± 0.037 h | 4.87 ± 0.59 h | 9.41 ± 2.8 h | 5.54 ± 0.49 h | 10.8 ± 2.5 h | 4.59 ± 0.58 h | 10.1 ± 1 h |
| MNPVDRPLLDIGLTRLEFLRISGKGLAGLTIAPALLSLLGCKQEDIDSGTVGLINTPKGVLVTQRARCTGCHRCEISCTNFNDGSVGTFFSRIKIHRNYFFGDNGVGSGGGLYGDLNYTADTCRQCKEPQCMNVCPIGAITWQQKEGCITVDHKRCIGCSACTTACPWMMATVNTESKKSSKCVLCGECANACPTGALKIIEWKDITV [P0AAL6] | – | – | – | – | – | – | – | > 16 h | – | – | – | – |
| MRILVLGVGNILLTDEAIGVRIVEALEQRYILPDYVEILDGGTAGMELLGDMANRDHLIIADAIVSKKNAPGTMMILRDEEVPALFTNKISPHQLGLADVLSALRFTGEFPKKLTLVGVIPESLEPHIGLTPTVEAMIEPALEQVLAALRESGVEAIPREAIHD | 5.25 ± 0.57 h | 4.51 ± 0.38 h | 4.14 ± 0.58 h | 5.3 ± 0.96 h | 3.53 ± 0.16 h | 3.09 ± 0.27 h | 5.7 ± 1.1 h | 11.5 ± 0.37 h | 4.28 ± 0.7 h | 6.81 ± 0.15 h | 6.77 ± 0.8 h | 11 ± 0.18 h |
